Drawing on the supplement of paper PMC12042874, this text covers amyloid nucleation score for 141 substances.

± gives the uncertainty stated by the source.

The nature of this data set: amyloid nucleation score (Sup35N fusion, yeast selection) (log enrichment); library NNK1; higher = more nucleation; inactive = no reads after selection. A digest of the protocol: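 Random libraries were run with three technical output replicates. In each, psi-negative yeast expressing Sup35N fused to peptides of 20 random codons were induced 24 hours with 100 μM copper sulfate and grown 7 days at 30°C on medium lacking adenine and uracil, and input and output plasmid inserts were Illumina-sequenced. The nucleation score is the DiMSum log enrichment of output over input reads, centred on the mode score of non-aggregating sequences, and sequences under 100 input reads were excluded.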
With RHISAAEPQSVESMIAKGN, the amyloid nucleation score was -0.054 ± 0.98.

For RHIYVSVNERLYVEFNYIAG, the amyloid nucleation score was found to be 2.19 ± 0.34. The substance RHMHSQFPAGLLIVGLRIVW showed an amyloid nucleation score of 0.915 ± 0.75.

For RHVGVAGFRFLPGPCDWPAR, the amyloid nucleation score is 3.94 ± 0.14. Regarding RHVNEQDILREQFLLMDFRK, the amyloid nucleation score was 0.753 ± 0.72. For RHVVRR the value was 0.441 ± 0.36. Then RICPKNCMSISVI, with 0.305 ± 0.29. RIDDSIFLDFWM came in with an amyloid nucleation score of -0.214 ± 0.4.

RIENNFLSTSFVFSCLIGNM: the amyloid nucleation score stood at 5.88 ± 0.07.

RIGETASYTL came in with an amyloid nucleation score of -0.09 ± 0.47. As to RIGTGSHLWII, the amyloid nucleation score was -0.083 ± 0.6. For RIISGRLSSMFVNSIKVIMD, the amyloid nucleation score turned out to be 0.889 ± 0.21. RIKNGLPKGFFGKSLSPMRW yielded an amyloid nucleation score of -0.161 ± 0.8. In turn, RIRIVNITGAESPMLCLNHE registered an amyloid nucleation score of 4.42 ± 0.12. Then RIRWSVVVNV, with -0.002 ± 0.29; and RISNRCSCSCNFDQGGVRQP, with 0.394 ± 1.1.

The substance RIVILLKVIYFQFYRLQYIT had an amyloid nucleation score of 0.03 ± 0.32.

For RIVKSGGFNR, the amyloid nucleation score was -0.089 ± 0.39. Then RIVLILRSNHCQNSY, with 0.641 ± 0.3; and RIWDCRYCKG, with -0.184 ± 0.29. RIWPRSMYRPSSGCVET had an amyloid nucleation score of -0.281 ± 0.52. For RKNFLGIGQKLGSSSDWGG the value was -0.899 ± 1; for RKNSNDEASS, -0.339 ± 0.31.

In the case of RKRVCSGLRSFWSFFRCLRV, the amyloid nucleation score is -0.711 ± 2.1. For RKVGVGKYLSHFECANRIWL the value was 0.3 ± 0.33; for RKVITDKTLL, -0.099 ± 0.45. In turn, RLCKKSIHRDVASRFPNEDV came in with an amyloid nucleation score of 1.02 ± 0.36. For the substance RLFFSE, the amyloid nucleation score is 0.117 ± 0.32. For the substance RLFGLPKYCYVILFPVDVCH, the amyloid nucleation score turned out to be 0.132 ± 0.21.

With RLFVVEELESWGCFNWASIM, the amyloid nucleation score is -1.7 ± 2.4. Then RLKLTGFMGLSILERVTLCS, with -0.396 ± 0.52; and RLLFITYSMVSKYNKCLIRG, with 0.048 ± 0.74; and RLLRYMRDIR, with -0.814 ± 0.57. In the case of RLMRHNMPTVVEHAGSSRSN, the amyloid nucleation score was -0.132 ± 0.31. For RLMTDHINSTVTSMGKGRIT the value was -0.026 ± 0.22; for RLNDNRYSYVVVS, -0.127 ± 0.64.

As for RLPLMNWFTAMA, the amyloid nucleation score was 0.037 ± 0.42. Substance RLRITVTISATAGMMRRLHR displayed an amyloid nucleation score of 2.39 ± 0.14. Then RLRLWFVASRMVDKGSGLNV, with 0.67 ± 0.49.

Take RLRSLDHWSWDAVMLMRAQL: the amyloid nucleation score is 0.432 ± 0.34. RLSGKFFICVGLKCVIWLRG came in with an amyloid nucleation score of -1.09 ± 0.54. Regarding RLSRLLTLISVACSTFLCVV, the amyloid nucleation score was -1.84 ± 2.1. For the substance RLWGYCMHSLVFDTNIWHPL, the amyloid nucleation score came out at 0.461 ± 0.32.

With RLWYGRSPWELVTIRSQARG, the amyloid nucleation score was 0.14 ± 0.31.

Substance RLYYLGMSGYLRHNPASCVL had an amyloid nucleation score of -1.56 ± 2.7. RMAPMMDP gave an amyloid nucleation score of -0.227 ± 1.1. Take RMTWQM: the amyloid nucleation score is -0.885 ± 2.1. For RMYLGVLIRHWIDSFAFGMQ the value was 0.193 ± 0.32; for RMYYAFVCGGEDMESEFPCY, -0.037 ± 1.4; for RNFFDLCGTSKRRMRIS, -0.15 ± 0.47. RNFPTRCMCIQNYAKL yielded an amyloid nucleation score of 2.22 ± 0.17. RNIVIMYRNCLVKLNLETGS registered an amyloid nucleation score of 6.77 ± 0.053. For RNLEVIYNSI the value was 0.229 ± 0.52. As to RNLTDQL, the amyloid nucleation score turned out to be 2.99 ± 0.2. For RNNEDGRLKDRRRGLSHGPC the value was -0.763 ± 0.36; for RNSIVGCGYDVGTHVSDLGP, -0.035 ± 0.41; for RNVGFLFSKRDQPWLKSPGD, -0.983 ± 2.4. With RNYLIDV, the amyloid nucleation score is -0.668 ± 0.4. As to RPCIWFGTTCFYCTVFN, the amyloid nucleation score came to 5.76 ± 0.061.

Take RPLVGTGIYSVVRSLFRLCV: the amyloid nucleation score was -1.16 ± 0.59.

Substance RPWAWPRCRSCAST came in with an amyloid nucleation score of 0.689 ± 0.37.

RQARFSFDLRFP: the amyloid nucleation score worked out at 0.567 ± 0.35. Substance RQDAVNNNTCNSISFNP returned an amyloid nucleation score of 0.048 ± 0.52. For RQGSDGVSSRKLWFFVRIAI the value was -0.383 ± 1.7; for RQSLRRSYHHRWKRDVMR, “inactive”; for RQTGVYCKFNRSRDSILLSH, -0.782 ± 0.86. The substance RRGSNDDSYHRRQVDRKPMA displayed an amyloid nucleation score of 0.166 ± 0.66.

On to RRLNCLILFKVVLLATIFCI, for which the amyloid nucleation score is -1.42 ± 0.58. On to RRLTILSTSPWCTPLELNSF, for which the amyloid nucleation score was -0.282 ± 0.37.

Regarding RRNHNSRVVINVLMHVRCSI, the amyloid nucleation score stood at 1.95 ± 0.1. For the substance RRNVWASVTGGELWKGDLSR, the amyloid nucleation score was -0.498 ± 1.1. As to RRSGTLDGSGSGSCVRLPPN, the amyloid nucleation score is -0.172 ± 0.5. RSARIKNWSSLYLWMINSCV yielded an amyloid nucleation score of 0.469 ± 0.32.

As for RSCGMTVGACSYVACVSYCT, the amyloid nucleation score came to 6.02 ± 0.066. Substance RSCGQFLSWSACPFVSLRRR displayed an amyloid nucleation score of 0.274 ± 0.46. RSCMRPFIGIMSSSPQIDKA: the amyloid nucleation score is -0.53 ± 0.77.

Turning to RSETGMYSAHACLL, the amyloid nucleation score was -0.314 ± 1.7. For RSEVYFNWGLNASMEVSPLC the value was -0.02 ± 0.41; for RSFLMPDE, 0.307 ± 0.46; for RSHGNGSGSRTVAF, -0.1 ± 0.49. For RSIFVP, the amyloid nucleation score entry was “inactive”. In turn, RSIRC displayed an amyloid nucleation score of -0.615 ± 1.1. In turn, RSISSVLVSIFTKMG came in with an amyloid nucleation score of 0.232 ± 0.35. Then RSLFFV, with -0.867 ± 0.86; and RSMDRTGSIAGRYCVKKMSS, with 0.423 ± 0.3; and RSNCDFLSNNYGFLFGFLSQ, with 0.525 ± 0.44. For RSPFWRDVKNKITVSPIFAN the value was 0.945 ± 0.61. Then RSPRGSVFHMFI, with 0.176 ± 1.6; and RSRVSIRSHSDRRGRVKRVV, with 1.15 ± 0.65. On to RSSGVSVGYFRAFS, for which the amyloid nucleation score result is “inactive”. Substance RSSLVLTFELFRFGMYHQEM gave an amyloid nucleation score of 1.28 ± 0.15.

As for RSVCIVF, the amyloid nucleation score came to 0.105 ± 0.43. The substance RTCHSQICFSGRMYRLFVMI yielded an amyloid nucleation score of 0.41 ± 0.48.

RTFHYAVNINRWLNKECGLH: the amyloid nucleation score is -0.702 ± 1.7. In turn, RTGITNTKPTQWSYNQSLSS returned an amyloid nucleation score of -0.291 ± 0.52. RTGSAASG yielded an amyloid nucleation score of -0.564 ± 0.38. In turn, RTGVIWYY displayed an amyloid nucleation score of -0.677 ± 1.

In turn, RTHEFQTLMEAFRSNTAVSA came in with an amyloid nucleation score of -0.031 ± 0.22. Substance RTIHAIERDDCLRGNSGKNN displayed an amyloid nucleation score of 1.12 ± 0.57. RTLHRLLSSINAKGDRYRLR yielded an amyloid nucleation score of -0.935 ± 1.9. As for RTRAGKYMYVSSQPTCSILI, the amyloid nucleation score is 0.312 ± 0.56.

As for RTSTQFPSHQYIQVVLCIS, the amyloid nucleation score result is “inactive”. For the substance RVCVFIN, the amyloid nucleation score entry is “inactive”.

Substance RVCVLFSCWRTMYMIWNSRE registered an amyloid nucleation score of 5.71 ± 0.061. RVDGHTVR: the amyloid nucleation score is 2.4 ± 0.14. For RVDPLV the value was “inactive”; for RVDQVKSGFDMLYYPHWHQL, 0.532 ± 0.37; for RVDRMKNIFVRYRTVRVHGG, 9.304 ± 0.045. For RVEVSGVLALANPLVPF the value was 0.92 ± 0.6; for RVFKFSPYILKAILEVSNA, 0.458 ± 0.32; for RVGDYGKHRW, 1.31 ± 0.14. Consider RVGYH, for which the amyloid nucleation score is -0.135 ± 0.35. RVIGPTHYLQLCNIMFCDYI had an amyloid nucleation score of 7.206 ± 0.051.

Substance RVISPSCKWDQCSPMCS displayed an amyloid nucleation score of -0.499 ± 1.1. RVLANCLCFKYNETRRGCTL displayed an amyloid nucleation score of 0.218 ± 0.95.

RVLIRYQV gave an amyloid nucleation score of 0.345 ± 0.58. Then RVLNMFYVMNCAIFWVVEAC, with 2.49 ± 0.18; and RVLSSTNHSAYHWIEKGSTF, with 1.01 ± 0.31. The substance RVMVFGRHNEDVSKFSISGK yielded an amyloid nucleation score of 4 ± 0.1.

Substance RVRAVCVLFRTNAAFPAGTH returned an amyloid nucleation score of -1.03 ± 0.74. Substance RVRTPHNWTWGITCTWVFKF gave an amyloid nucleation score of 0.326 ± 0.51.

In turn, RVTSNEKRNYRVSRICPHLT registered an amyloid nucleation score of -0.271 ± 1. In the case of RVWCLRTLKCLIAAR, the amyloid nucleation score was determined as 0.189 ± 0.45. Then RVYYSRYYVFDHSYFDTRRG, with -1.07 ± 1.3; and RWCGKPRICFSISEAVDKLH, with -0.2 ± 0.21; and RWEFGLRHGKSVKWSIPSLY, with -0.085 ± 0.95. For the substance RWGAYVYGQSVSINGIRIVL, the amyloid nucleation score is 6.665 ± 0.045.

Turning to RWLHVIKL, the amyloid nucleation score was determined as 2.21 ± 0.35.

The substance RWSILTIVSMGP gave an amyloid nucleation score of 0.196 ± 1.2. RWSPV yielded an amyloid nucleation score of 1.47 ± 0.54. Turning to RWTVLRIWIYEVQKIAARRS, the amyloid nucleation score came out at 0.098 ± 0.44.

RWYVFWQSMGCVRSGVWVKG gave an amyloid nucleation score of 0.195 ± 0.31. Turning to RWYWIF, the amyloid nucleation score amounted to 4.6 ± 0.069. Then RYDPMLWINLYCFLITGG, with 0.334 ± 0.39; and RYFSRAVACDHNES, with -0.547 ± 0.84; and RYHPMG, with -0.074 ± 0.93. Regarding RYHSMYTNSNTRGFGSSLQL, the amyloid nucleation score result is “inactive”. In turn, RYHSY yielded an amyloid nucleation score of -0.008 ± 0.77.

On to RYICVTFISLGELPFYWWFT, for which the amyloid nucleation score is -1.55 ± 0.83. The substance RYILLVYVTCDRKVRAMKGV showed an amyloid nucleation score of 0.883 ± 0.33. In turn, RYLLKLFRIVGFGVVFMMSK returned an amyloid nucleation score of -0.511 ± 0.34.
